{"source": "patent US10434147B2", "about": "“Treatment type 2 diabetes mellitus patients” (Sanofi-Aventis Deutschland GmbH, priority 2015, dated 2019)", "tested_on": "Patients with Type 2 Diabetes Insufficiently Controlled with Insulin Glargine with or without Metformin", "assay": "Treatment-emergent adverse events, 26-week study", "assay_type": "in vivo, human", "text": "FIG. 6—Graphical study design. ^1 Insulin glargine should be injected subcutaneously once daily at dinner or breakfast time (according to patient's/investigators' preference). […] Meal used for insulin glulisine dosing should remain the same throughout the 26-week treatment period. ^4 Injection of insulin glulisine prior to breakfast, lunch and dinner.\nCo-primary endpoints at 26 weeks were (1) non-inferiority (95% CI upper bound <0.4%) in HbA1c reduction with LIXI vs GLU-1 and (2) for LIXI vs GLU-3, either non-inferiority in HbA1c reduction (2a) OR superiority (one-sided α≤0.025) in body weight change (2b). FPG, PPG, IG dose, composite outcomes, AEs, and hypoglycemia were assessed.", "key": {"[1]": {"details": "Safety population, PT ≥ 3% table"}}, "data": [{"substance": "Insulin Glulisine TID: insulin glulisine three times daily, added to insulin glargine ± metformin (comparator arm)", "values": [{"measurement": "Patients with any TEAE leading to death", "setting": "Safety population", "value": "2 (0.7%) n (%)"}, {"measurement": "Patients with treatment emergent SAE: Accidental overdose", "setting": "Safety population", "value": "1 (0.3%) n (%)"}, {"measurement": "Patients with TEAE: Accidental overdose", "setting": "[1]", "value": "20 (6.8%) n (%)"}, {"measurement": "Patients with TEAE: Headache", "setting": "[1]", "value": "12 (4.1%) n (%)"}, {"measurement": "Patients with TEAE: Hypoglycaemia", "setting": "[1]", "value": "154 (52.4%) n (%)"}, {"measurement": "Patients with TEAE: Infections and infestations (SOC)", "setting": "[1]", "value": "81 (27.6%) n (%)"}, {"measurement": "Patients with TEAE: Influenza", "setting": "[1]", "value": "14 (4.8%) n (%)"}, {"measurement": "Patients with TEAE: Injury, poisoning and procedural complications (SOC)", "setting": "[1]", "value": "28 (9.5%) n (%)"}, {"measurement": "Patients with TEAE: Investigations (SOC)", "setting": "[1]", "value": "92 (31.3%) n (%)"}, {"measurement": "Patients with TEAE: Metabolism and nutrition disorders (SOC)", "setting": "[1]", "value": "157 (53.4%) n (%)"}, {"measurement": "Adjudicated by PSAC: Acute on chronic pancreatitis", "setting": "in vivo", "value": "0 n (%)"}, {"measurement": "Adjudicated by PSAC: Acute pancreatitis", "setting": "in vivo", "value": "0 n (%)"}, {"measurement": "Adjudicated by PSAC: Chronic pancreatitis", "setting": "in vivo", "value": "0 n (%)"}, {"measurement": "Adjudicated by PSAC: Unknown pancreatitis", "setting": "in vivo", "value": "0 n (%)"}, {"measurement": "Gastrointestinal AEs: Diarrhea", "setting": "in vivo", "value": "4 (1) n (%)"}, {"measurement": "Gastrointestinal AEs: Nausea", "setting": "in vivo", "value": "3 (1) n (%)"}, {"measurement": "Gastrointestinal AEs: Vomiting", "setting": "in vivo", "value": "6 (2) n (%)"}, {"measurement": "Patients with TEAE on the specific adverse event form for increased calcitonin (>=20 ng/L): Any", "setting": "in vivo", "value": "1 (0.3%) n (%)"}, {"measurement": "Patients with TEAE on the specific adverse event form for increased calcitonin (>=20 ng/L): Blood calcitonin increased", "setting": "in vivo", "value": "1 (0.3%) n (%)"}, {"measurement": "Patients with TEAE: Any class", "setting": "in vivo", "value": "236 (80.3%) n (%)"}, {"measurement": "Patients with TEAE: Blood glucose decreased", "setting": "in vivo", "value": "82 (27.9%) n (%)"}, {"measurement": "Patients with TEAE: Diarrhoea", "setting": "in vivo", "value": "4 (1.4%) n (%)"}, {"measurement": "Patients with TEAE: Gastrointestinal disorders (SOC)", "setting": "in vivo", "value": "22 (7.5%) n (%)"}, {"measurement": "Patients with TEAE: Nasopharyngitis", "setting": "in vivo", "value": "18 (6.1%) n (%)"}, {"measurement": "Patients with TEAE: Nausea", "setting": "in vivo", "value": "3 (1.0%) n (%)"}, {"measurement": "Patients with TEAE: Nervous system disorders (SOC)", "setting": "in vivo", "value": "29 (9.9%) n (%)"}, {"measurement": "Patients with TEAE: Upper respiratory tract infection", "setting": "in vivo", "value": "11 (3.7%) n (%)"}, {"measurement": "Patients with TEAE: Vomiting", "setting": "in vivo", "value": "6 (2.0%) n (%)"}, {"measurement": "Patients with any TEAE", "setting": "in vivo", "value": "236 (80.3%) n (%)"}, {"measurement": "Patients with any TEAE leading to permanent treatment discontinuation", "setting": "in vivo", "value": "3 (1.0%) n (%)"}, {"measurement": "Patients with any treatment emergent SAE", "setting": "in vivo", "value": "14 (4.8%) n (%)"}, {"measurement": "Patients with events adjudicated as allergic reaction by ARAC: All, Any category, Any event", "setting": "in vivo", "value": "1 (0.3%) n (%)"}, {"measurement": "Patients with events adjudicated as allergic reaction by ARAC: OTHER ALLERGIC REACTION, Rhinitis allergic", "setting": "in vivo", "value": "1 (0.3%) n (%)"}, {"measurement": "Patients with events adjudicated as allergic reaction by ARAC: Possibly Related to IMP, Any event", "setting": "in vivo", "value": "0 n (%)"}, {"measurement": "Patients with events adjudicated as allergic reaction by ARAC: URTICARIA (HIVES), Urticaria", "setting": "in vivo", "value": "0 n (%)"}, {"measurement": "Patients with treatment emergent SAE: Abdominal pain", "setting": "in vivo", "value": "0 n (%)"}, {"measurement": "Patients with treatment emergent SAE: Angina pectoris", "setting": "in vivo", "value": "1 (0.3%) n (%)"}, {"measurement": "Patients with treatment emergent SAE: Angina unstable", "setting": "in vivo", "value": "0 n (%)"}, {"measurement": "Patients with treatment emergent SAE: Ankle fracture", "setting": "in vivo", "value": "0 n (%)"}, {"measurement": "Patients with treatment emergent SAE: Any class", "setting": "in vivo", "value": "14 (4.8%) n (%)"}, {"measurement": "Patients with treatment emergent SAE: Atrial fibrillation", "setting": "in vivo", "value": "0 n (%)"}, {"measurement": "Patients with treatment emergent SAE: Atrioventricular block complete", "setting": "in vivo", "value": "1 (0.3%) n (%)"}, {"measurement": "Patients with treatment emergent SAE: Basal cell carcinoma", "setting": "in vivo", "value": "1 (0.3%) n (%)"}, {"measurement": "Patients with treatment emergent SAE: Cardiac disorders (SOC)", "setting": "in vivo", "value": "5 (1.7%) n (%)"}, {"measurement": "Patients with treatment emergent SAE: Cardiac failure chronic", "setting": "in vivo", "value": "1 (0.3%) n (%)"}, {"measurement": "Patients with treatment emergent SAE: Cardiac failure congestive", "setting": "in vivo", "value": "1 (0.3%) n (%)"}, {"measurement": "Patients with treatment emergent SAE: Cellulitis", "setting": "in vivo", "value": "1 (0.3%) n (%)"}, {"measurement": "Patients with treatment emergent SAE: Cerebrovascular accident", "setting": "in vivo", "value": "2 (0.7%) n (%)"}, {"measurement": "Patients with treatment emergent SAE: Decreased appetite", "setting": "in vivo", "value": "0 n (%)"}, {"measurement": "Patients with treatment emergent SAE: Dehydration", "setting": "in vivo", "value": "0 n (%)"}, {"measurement": "Patients with treatment emergent SAE: Diabetic bullosis", "setting": "in vivo", "value": "0 n (%)"}, {"measurement": "Patients with treatment emergent SAE: Epigastric discomfort", "setting": "in vivo", "value": "0 n (%)"}, {"measurement": "Patients with treatment emergent SAE: Erysipelas", "setting": "in vivo", "value": "0 n (%)"}, {"measurement": "Patients with treatment emergent SAE: Gastric ulcer haemorrhage", "setting": "in vivo", "value": "0 n (%)"}, {"measurement": "Patients with treatment emergent SAE: Gastrointestinal disorders (SOC)", "setting": "in vivo", "value": "0 n (%)"}, {"measurement": "Patients with treatment emergent SAE: Hepatic mass", "setting": "in vivo", "value": "0 n (%)"}, {"measurement": "Patients with treatment emergent SAE: Hepatobiliary disorders (SOC)", "setting": "in vivo", "value": "0 n (%)"}, {"measurement": "Patients with treatment emergent SAE: Hypertension", "setting": "in vivo", "value": "1 (0.3%) n (%)"}, {"measurement": "Patients with treatment emergent SAE: Hypoglycaemia", "setting": "in vivo", "value": "0 n (%)"}, {"measurement": "Patients with treatment emergent SAE: Hypoglycaemic unconsciousness", "setting": "in vivo", "value": "0 n (%)"}, {"measurement": "Patients with treatment emergent SAE: Incisional hernia", "setting": "in vivo", "value": "0 n (%)"}, {"measurement": "Patients with treatment emergent SAE: Infections and infestations (SOC)", "setting": "in vivo", "value": "1 (0.3%) n (%)"}, {"measurement": "Patients with treatment emergent SAE: Injury, poisoning and procedural complications (SOC)", "setting": "in vivo", "value": "1 (0.3%) n (%)"}, {"measurement": "Patients with treatment emergent SAE: Invasive ductal breast carcinoma", "setting": "in vivo", "value": "1 (0.3%) n (%)"}, {"measurement": "Patients with treatment emergent SAE: Metabolism and nutrition disorders (SOC)", "setting": "in vivo", "value": "0 n (%)"}, {"measurement": "Patients with treatment emergent SAE: Myocardial infarction", "setting": "in vivo", "value": "0 n (%)"}, {"measurement": "Patients with treatment emergent SAE: Myocardial ischaemia", "setting": "in vivo", "value": "1 (0.3%) n (%)"}, {"measurement": "Patients with treatment emergent SAE: Neoplasm malignant", "setting": "in vivo", "value": "1 (0.3%) n (%)"}, {"measurement": "Patients with treatment emergent SAE: Neoplasms benign, malignant and unspecified (incl cysts and polyps) (SOC)", "setting": "in vivo", "value": "3 (1.0%) n (%)"}, {"measurement": "Patients with treatment emergent SAE: Nervous system disorders (SOC)", "setting": "in vivo", "value": "2 (0.7%) n (%)"}, {"measurement": "Patients with treatment emergent SAE: Neuritis cranial", "setting": "in vivo", "value": "0 n (%)"}, {"measurement": "Patients with treatment emergent SAE: Pancreatic carcinoma metastatic", "setting": "in vivo", "value": "0 n (%)"}]}]}
